We go through 1 molecule from article PMC6602525 (Cell, 2019).

The experiment has as its target PfRH5FL (full-length PfRH5 protein comprising amino acids E26–Q526) (P. falciparum (3D7 clone), UniProt Q8IFM5 26-526, T40A | T216A | T286A | T299A). Nature of the experiment: SPR. The conditions noted are these: both partners purified.

B1: PfP113Nt (domain or fragment)
chain: YVHNDVIKFGEENSLKCSQGNLYVLHCEVQCLNGNNEIIHKRCNDDIEKKCNGNNKCIYFFEYELRKKTQSFRNKNSIEISECVESEQNEVKTSTTCLLSNSFILDEAFIQYFFFIKNKNEEPVICKDGNINIKSALLHSPFCEIKLKDISEYIRKKCDNNKECLIDPLDVQKNLLNEEDPCYINNSYVSVNVVCNK
Take B1: the binding result was “binds”.
